The record followed here is publication PMC9427789 (2022).

Changes are numbered by the printed parent chain. Names and notes keep the numbering of the source.

By Kd is commonly meant the constant that tells how readily two partners part at equilibrium. A high value points to a looser complex.

Sequences and labels used below:
T1: His-SUMO-FGF23 (N-terminal domain of human FGF23, wild type) (human, UniProt Q9GZV9 25-204)
T1 chain: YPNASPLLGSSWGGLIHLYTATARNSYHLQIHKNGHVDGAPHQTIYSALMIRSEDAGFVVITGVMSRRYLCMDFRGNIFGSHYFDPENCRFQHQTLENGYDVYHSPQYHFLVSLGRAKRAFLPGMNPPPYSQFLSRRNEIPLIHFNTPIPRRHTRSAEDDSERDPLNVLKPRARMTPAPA

B1: Burosumab (wild type) (antibody, V domains shown)
VH: QVQLVQSGAEVKKPGASVKVSCKASGYTFTNHYMHWVRQAPGQGLEWMGIINPISGSTSNAQKFQGRVTMTRDTSTSTVYMELSSLRSEDTAVYYCARDIVDAFDFWGQGTMVTVSS
VL: AIQLTQSPSSLSASVGDRVTITCRASQGISSALVWYQQKPGKAPKLLIYDASSLESGVPSRFSGSGSGTDFTLTISSLQPEDFATYYCQQFNDYFTFGPGTKVDIK
B2: Burosumab variant with combined VH:V97A and VL:A32S mutations (antibody, V domains shown)
VH: B1 VH with V101A
VL: B1 VL with A32S
B3: Burosumab VH:V97A (antibody, V domains shown)
VH: B1 VH with V101A
VL: B1 VL
B4: Burosumab VL:A32S (antibody, V domains shown)
VH: B1 VH
VL: B1 VL with A32S

This assay addresses T1, His-SUMO-FGF23 (N-terminal domain of …). Description: ELISA. (ELISA stands for enzyme-linked immunosorbent assay.)
With B1, the affinity, expressed as Kd, was 0.77 nM. The molecule B2 returned a Kd of 0.21 nM.

The molecule B3 registered a Kd of 0.65 nM.

In turn, B4 came in with a Kd of 0.48 nM.
